# Laboratory results as given in article PMC4430201 (Nature, 2014).
# Target: the molecule itself
# Experiment: crystal structure
protein,measurement,value
"lantibiotic dehydratase NisB (enzyme, Lactococcus lactis, methylated prior to crystallization (residues not stated)) MIKSSFKAQPFLVRNTILCPNDKRSFTEYTQVIETVSKNKVFLEQLLLANPKLYDVMQKYNAGLLKKKRVKKLFESIYKYYKRSYLRSTPFGLFSETSIGVFSKSSQYKLMGKTTKGIRLDTQWLIRLVHKMEVDFSKKLSFTRNNANYKFGDRVFQVYTINSSELEEVNIKYTNVYQIISEFCENDYQKYEDICETVTLCYGDEYRELSEQYLGSLIVNHYLISNLQKDLLSDFSWNTFLTKVEAIDEDKKYIIPLKKVQKFIQEYSEIEIGEGIEKLKEIYQEMSQILENDNYIQIDLISDSEINFDVKQKQQLEHLAEFLGNTTKSVRRTYLDDYKDKFIEKYGVDQEVQITELFDSTFGIGAPYNYNHPRNDFYESEPSTLYYSEEEREKYLSMYVEAVKNHNVINLDDLESHYQKMDLEKKSELQGLELFLNLAKEYEKDIFILGDIVGNNNLGGASGRFSALSPELTSYHRTIVDSVERENENKEITSCEIVFLPENIRHANVMHTSIMRRKVLPFFTSTSHNEVLLTNIYIGIDEKEKFYARDISTQEVLKFYITSMYNKTLFSNELRFLYEISLDDKFGNLPWELIYRDFDYIPRLVFDEIVISPAKWKIWGRDVNSKMTIRELIQSKEIPKEFYIVNGDNKVYLSQKNPLDMEILESAIKKSSKRKDFIELQEYFEDENIINKGEKGRVADVVVPFIRTRALGNEGRAFIREKRVSVERREKLPFNEWLYLKLYISINRQNEFLLSYLPDIQKIVANLGGNLFFLRYTDPKPHIRLRIKCSDLFLAYGSILEILKRSRKNRIMSTFDISIYDQEVERYGGFDTLELSEAIFCADSKIIPNLLTLIKDTNNDWKVDDVSILVNYLYLKCFFQNDNKKILNFLNLVSTKKVKENVNEKIEHYLKLLKVNNLGDQIFYDKNFKELKHAIKNLFLKMIAQDFELQKVYSIIDSIIHVHNNRLIGIERDKEKLIYYTLQRLFVSEEYMK",stoichiometry N,2
